Tested on: guinea pig (豚鼠)
Assay: Allergy (sensitisation) test (过敏性试验)
Format: in vivo
Conditions: 0.5 ml x 3 every other day; challenge i.v. 1 ml on day 14 and day 21; observed 30 minutes

B1: 阳性对照组: 5% ovalbumin positive control group (protein, UniProt P01012 2-386, looked up)
Ovalbumin: GSIGAASMEFCFDVFKELKVHHANENIFYCPIAIMSALAMVYLGAKDSTRTQINKVVRFDKLPGFGDSIEAQCGTSVNVHSSLRDILNQITKPNDVYSFSLASRLYAEERYPILPEYLQCVKELYRGGLEPINFQTAADQARELINSWVESQTNGIIRNVLQPSSVDSQTAMVLVNAIVFKGLWEKAFKDEDTQAMPFRVTEQESKPVQMMYQIGLFRVASMASEKMKILELPFASGTMSMLVLLPDEVSGLEQLESIINFEKLTEWTSSNVMEERKIKVYLPRMKMEEKYNLTSVLMAMGITDVFSSSANLSGISSAESLKISQAVHAAHAEINEAGREVVGSAEAGVDAASVSEEFRADHPFLFCIKHIATNAVLFFGRCVSP
**Q.** B1 was tested. Which allergic reaction symptoms did it give?
**A.** 竖毛、发抖、干呕、喷嚏、咳嗽、紫癜、呼吸困难、抽搐、休克、死亡
